Source: patent EP4660201A1 (dated 2025)
Positions count from the first letter of the chain named.

Assays:
[1] = target: T1, KRAS G12V 7-16, P5P peptide on HLA-A*11:01 (human); assay: cytokine release
T1 peptide: VVVGPVGVGK

[2] = target: T2, KRAS G12V 7-16, P8F peptide on HLA-A*11:01 (human); assay: cytokine release
T2 peptide: VVVGAVGFGK

[3] = target: T3, KRAS G12V 7-16, P3S peptide on HLA-A*11:01 (human); assay: cytokine release
T3 peptide: VVSGAVGVGK

[4] = target: T4, KRAS G12V 7-16, P8L peptide on HLA-A*11:01 (human); assay: cytokine release
T4 peptide: VVVGAVGLGK

[5] = target: T5, KRAS G12V 7-16, P6I peptide on HLA-A*11:01 (human); assay: cytokine release
T5 peptide: VVVGAIGVGK

[6] = target: T6, KRAS G12V 7-16, P9S peptide on HLA-A*11:01 (human); assay: cytokine release
T6 peptide: VVVGAVGVSK

[7] = target: T7, KRAS G12V 7-16, P3G peptide on HLA-A*11:01 (human); assay: cytokine release
T7 peptide: VVGGAVGVGK

[8] = target: T8, KRAS G12V 7-16, P3A peptide on HLA-A*11:01 (human); assay: cytokine release
T8 peptide: VVAGAVGVGK

[9] = target: T9, KRAS G12V 7-16, P5S peptide on HLA-A*11:01 (human); assay: cytokine release
T9 peptide: VVVGSVGVGK

[10] = target: T10, KRAS G12V 7-16, P9N peptide on HLA-A*11:01 (human); assay: cytokine release
T10 peptide: VVVGAVGVNK

[11] = target: T11, KRAS G12V 7-16, P3I peptide on HLA-A*11:01 (human); assay: cytokine release
T11 peptide: VVIGAVGVGK

[12] = target: T12, KRAS G12V 7-16, P1A peptide on HLA-A*11:01 (human); assay: cytokine release
T12 peptide: AVVGAVGVGK

[13] = target: T13, KRAS G12V 7-16, P3M peptide on HLA-A*11:01 (human); assay: cytokine release
T13 peptide: VVMGAVGVGK

[14] = target: T14, KRAS G12V 7-16, P5V peptide on HLA-A*11:01 (human); assay: cytokine release
T14 peptide: VVVGVVGVGK

[15] = target: T15, KRAS G12V 7-16, P5T peptide on HLA-A*11:01 (human); assay: cytokine release
T15 peptide: VVVGTVGVGK

[16] = target: T16, KRAS G12V 7-16, P9D peptide on HLA-A*11:01 (human); assay: cytokine release
T16 peptide: VVVGAVGVDK

[17] = target: T17, KRAS G12V 7-16, P3Q peptide on HLA-A*11:01 (human); assay: cytokine release
T17 peptide: VVQGAVGVGK

[18] = target: T18, KRAS G12V 7-16, P3E peptide on HLA-A*11:01 (human); assay: cytokine release
T18 peptide: VVEGAVGVGK

[19] = target: T19, KRAS G12V 7-16, P2I peptide on HLA-A*11:01 (human); assay: cytokine release
T19 peptide: VIVGAVGVGK

[20] = target: T20, KRAS G12V 7-16, P9Q peptide on HLA-A*11:01 (human); assay: cytokine release
T20 peptide: VVVGAVGVQK

[21] = target: T21, KRAS G12V 7-16, P5C peptide on HLA-A*11:01 (human); assay: cytokine release
T21 peptide: VVVGCVGVGK

[22] = target: T22, KRAS G12V 7-16, P3C peptide on HLA-A*11:01 (human); assay: cytokine release
T22 peptide: VVCGAVGVGK

[23] = target: T23, KRAS G12V 7-16, P8G peptide on HLA-A*11:01 (human); assay: cytokine release
T23 peptide: VVVGAVGGGK

[24] = target: T24, KRAS G12V 7-16, P9A peptide on HLA-A*11:01 (human); assay: cytokine release
T24 peptide: VVVGAVGVAK

[25] = target: T25, KRAS G12V 7-16, P8I peptide on HLA-A*11:01 (human); assay: cytokine release
T25 peptide: VVVGAVGIGK

[26] = target: KRAS G12V 7-16 epitope peptide … presented by HLA-A*11:01 (human); assay: cell-based or functional assay
[27] = target: T26, KRAS G12V peptide on HLA-A*11:01 (human); assay: NFAT-GFP reporter in Jurkat (endogenous TCR knocked out); T2 cells loaded with 1e-5 to 1e-9 M target antigen peptide; full-length, on cells
T26 peptide: VVVGAVGVGK

[28] = target: T27, KRAS G12V 7-16, P8T peptide on HLA-A*11:01 (human); assay: cytokine release
T27 peptide: VVVGAVGTGK

[29] = target: T28, KRAS G12V 7-16, P7A peptide on HLA-A*11:01 (human); assay: cytokine release
T28 peptide: VVVGAVAVGK

[30] = target: T29, KRAS G12V 7-16, P6L peptide on HLA-A*11:01 (human); assay: cytokine release
T29 peptide: VVVGALGVGK

[31] = target: T30, KRAS G12V 7-16, P8C peptide on HLA-A*11:01 (human); assay: cytokine release
T30 peptide: VVVGAVGCGK

[32] = target: T31, KRAS G12V 7-16, P1T peptide on HLA-A*11:01 (human); assay: cytokine release
T31 peptide: TVVGAVGVGK

[33] = target: T32, KRAS G12V 7-16, P7Q peptide on HLA-A*11:01 (human); assay: cytokine release
T32 peptide: VVVGAVQVGK

[34] = target: T26, KRAS G12V peptide on HLA-A*11:01; assay: IFN-gamma ELISA; TCR-T cells with T2KO-A1101 cells loaded with 1e-5 to 1e-11 M peptide, E:T 1:1, 20 h; Figure 6C; full-length, on cells
[35] = target: T26, KRAS G12V peptide on HLA-A*11:01; assay: luciferase killing assay; TCR-T cells with T2KO-A1101 cells loaded with 1e-5 to 1e-11 M peptide, E:T 9:1, 20 h; Figure 5C; full-length, on cells
[36] = target: KRAS G12D 7-16 epitope peptide … presented by HLA-A*11:01 (human); assay: cell-based or functional assay
[37] = target: T33, KRAS G12D peptide on HLA-A*11:01 (human); assay: NFAT-GFP reporter in Jurkat (endogenous TCR knocked out); T2 cells loaded with 1e-5 to 1e-9 M target antigen peptide; full-length, on cells
T33 peptide: VVVGADGVGK

[38] = target: T33, KRAS G12D peptide on HLA-A*11:01; assay: IFN-gamma ELISA; TCR-T cells with T2KO-A1101 cells loaded with 1e-5 to 1e-11 M peptide, E:T 1:1, 20 h; Figure 6D; full-length, on cells

B1: KVA11-N02 (TCR, V domains shown)
Valpha: AQSVAQPEDQVNVAEGNPLTVKCTYSVSGNPYLFWYVQYPNRGLQFLLKYITGDNLVKGSYGFEAEFNKSQTSFHLKKPSALVSDSALYFCAVRDIEGAGNNRKLIWGLGTSLAVNP
Vbeta: DAGVIQSPRHEVTEMGQEVTLRCKPISGHNSLFWYRQTMMRGLELLIYFNNNVPIDDSGMPEDRFSAKMPNASFSTLKIQPSEPRDSAVYFCASSEGFYTEAFFGQGTRLTVV
binding result [1]: recognises | binding result [2]: recognises | binding result [3]: recognises | binding result [4]: recognises | binding result [5]: recognises | binding result [6]: recognises | binding result [7]: recognises | binding result [8]: recognises | binding result [9]: recognises | binding result [10]: recognises | binding result [11]: recognises | binding result [12]: recognises | binding result [13]: recognises | binding result [14]: recognises | binding result [15]: recognises | binding result [16]: recognises | binding result [17]: recognises | binding result [18]: recognises | binding result [19]: recognises | binding result [20]: recognises | binding result [21]: recognises | binding result [22]: recognises | binding result [23]: recognises | binding result [24]: recognises | binding result [25]: recognises

B2: KVA11-N04 (TCR, V domains shown)
Valpha: GESVGLHLPTLGVQEGDNSIINCAYSNSASDYFIWYKQESGKGPQFIIDIRSNMDKRQGQRVTVLLNKTVKHLSLQIAATQPGDSAVYFCAENSDGTSYGKLTFGQGTILTVHP
Vbeta: EAGVAQSPRYKIIEKRQSVAFWCNPISGHATLYWYQQILGQGPKLLIQFQNNGVVDDSQLPKDRFSAERLKGVDSTLKIQPAKLEDSAVYLCASSLVGSPDYEQYFGPGTRLTVT
EC50 of IFN-γ secretion with peptide-loaded T2KO-A1101 cells (ELISA, E:T 1:1, 20 hours) [26]: 22 nM | EC50 of NFAT-GFP reporter activation, TCR in Jurkat-NFAT cells with peptide-loaded T2 cells [26]: 28.9 nM | EC50 of killing of peptide-loaded T2KO-A1101 cells (luciferase, E:T 9:1, 20 hours) [26]: 0.973 nM | EC50 of peptide [27]: 28.9 nM | binding result [28]: recognises | binding result [5]: recognises | binding result [7]: recognises | binding result [8]: recognises | binding result [9]: recognises | binding result [29]: recognises | binding result [30]: recognises | binding result [11]: recognises | binding result [31]: recognises | binding result [32]: recognises | binding result [33]: recognises | binding result [19]: recognises | binding result [21]: recognises | binding result [25]: recognises | EC50 of peptide [34]: 22 nM | EC50 of peptide [35]: 0.973 nM

B3: KDA11-N01 (TCR, V domains shown)
Valpha: QKEVEQNSGPLSVPEGAIASLNCTYSDRGSQSFFWYRQYSGKSPELIMSIYSNGDKEDGRFTAQLNKASQYVSLLIRDSQPSDSATYLCAVNLGAAGNKLTFGGGTRVLVKP
Vbeta: B2 Vbeta with L96F, V97S, G98D, P100Y, D101N, Y102S, E103P, Q104L, Y105H, P108N
EC50 of IFN-γ secretion with peptide-loaded T2KO-A1101 cells (ELISA, E:T 1:1, 20 hours) [36]: 49.6 nM | EC50 of NFAT-GFP reporter activation, TCR in Jurkat-NFAT cells with peptide-loaded T2 cells [36]: 76.5 nM | EC50 of peptide [37]: 76.5 nM | EC50 of peptide [38]: 49.6 nM
